Test results reported in patent publication US20250145701A1.

Columns and labels:
[1] = target: monkey PD-1 (ACRO, His tag) (monkey) (UniProt B0LAJ3); test: ELISA, monkey PD-1-His coated at 1 ug/mL, anti-human IgG Fc detection
[2] = target: monkey PD-1 (ACRO, His tag) (monkey) (UniProt B0LAJ3); test: ELISA, monkey PD-1-His coated at 1 ug/mL, anti-human IgG Fc detection, OD450
[3] = target: human VEGF (ACRO, His tag) (human) (UniProt P15692); test: ELISA, human VEGF-His coated at 50 ng/ml, anti-human IgG Fc detection, OD450; negative control
Chain of human VEGF (ACRO, His tag) (human) (P15692 other isoform, or with tags, fused parts or gaps limits assumed): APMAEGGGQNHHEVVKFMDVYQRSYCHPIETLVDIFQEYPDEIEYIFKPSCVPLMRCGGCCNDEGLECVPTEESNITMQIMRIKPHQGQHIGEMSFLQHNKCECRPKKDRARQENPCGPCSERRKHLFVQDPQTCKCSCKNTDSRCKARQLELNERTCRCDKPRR

[4] = target: biotin-labeled human VEGF (ACRO, biotinylated protein) (human) (UniProt P15692); test: bridging ELISA: human PD-1-His coated at 1 ug/mL, antibody, then biotinylated human VEGF at 50 ng/ml and streptavidin-HRP, OD450; single-target control
Chain of biotin-labeled human VEGF (ACRO, biotinylated protein) (human) (P15692 other isoform, or with tags, fused parts or gaps limits assumed): as above

Chain of monkey PD-1 (ACRO, His tag) (monkey) (B0LAJ3 entry or part of it limits assumed, form in doubt): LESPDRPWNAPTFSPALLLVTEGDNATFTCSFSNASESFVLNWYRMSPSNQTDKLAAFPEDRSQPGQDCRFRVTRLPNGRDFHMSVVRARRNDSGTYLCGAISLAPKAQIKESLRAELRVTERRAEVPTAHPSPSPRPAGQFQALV

Row | EC50 [1] [nM] | TOP OD [2] [OD] | TOP OD [3] [OD] | TOP OD [4] [OD] | Substance
1 | 0.187 | 3.08 | – | – | Keytruda (pembrolizumab) (antibody)
2 | 0.153 | 2.99 | 0.048 | 0.048 | Opdivo (nivolumab) (antibody)
